The target in test [1] is Recombinant extracellular domain of CD44 (aa21–606), His- and SUMO-tags (Lifespan Biosciences). The test is described as follows: ELISA; receptor (CD44v or integrin) plated on a high-binding 96-well plate, GST-OPN in solution 2 h at room temperature; 10 mM HEPES pH 7.4, 150 mM NaCl, 2 mM MnCl2, 0.05% Tween 20; detection with HRP-anti-GST; constants from double-reciprocal plots. Background: An ELISA detects its analyte on a solid surface through an enzyme-linked reagent.

In test [2] the target is truncated version of CD44v (MyBiosource). The test is described as above.
Test [3] deals with extracellular portion of integrin αVβ3 (R&D Systems) (UniProt P06756). The description is as above.
For test [4], the target named is T1, extracellular portion of integrin α9β1 (R&D Systems) (UniProt Q13797 30-977; P05556 21-728).
T1 construct: also called α9β1 extracellular domain; source: bought: R&D Systems
The test is described as follows: SPR; BIACORE 2000, CM5 chip; about 8000 RU of GST-OPN, CD44v or integrin α9β1 immobilised by amine coupling, BSA control flow cell; one protein in the flow, 50 μL/min, 120 s; 10 mM HEPES, 150 mM NaCl, pH 7.4, 0.05% Tween 20, 0.4 mM MnCl2, 25 °C. As to conditions: both partners purified. (In general: In SPR one partner is held on a chip, and binding of the other changes the refractive index at the surface.)

Chain of truncated version of CD44v (MyBiosource) (P16070 21-742): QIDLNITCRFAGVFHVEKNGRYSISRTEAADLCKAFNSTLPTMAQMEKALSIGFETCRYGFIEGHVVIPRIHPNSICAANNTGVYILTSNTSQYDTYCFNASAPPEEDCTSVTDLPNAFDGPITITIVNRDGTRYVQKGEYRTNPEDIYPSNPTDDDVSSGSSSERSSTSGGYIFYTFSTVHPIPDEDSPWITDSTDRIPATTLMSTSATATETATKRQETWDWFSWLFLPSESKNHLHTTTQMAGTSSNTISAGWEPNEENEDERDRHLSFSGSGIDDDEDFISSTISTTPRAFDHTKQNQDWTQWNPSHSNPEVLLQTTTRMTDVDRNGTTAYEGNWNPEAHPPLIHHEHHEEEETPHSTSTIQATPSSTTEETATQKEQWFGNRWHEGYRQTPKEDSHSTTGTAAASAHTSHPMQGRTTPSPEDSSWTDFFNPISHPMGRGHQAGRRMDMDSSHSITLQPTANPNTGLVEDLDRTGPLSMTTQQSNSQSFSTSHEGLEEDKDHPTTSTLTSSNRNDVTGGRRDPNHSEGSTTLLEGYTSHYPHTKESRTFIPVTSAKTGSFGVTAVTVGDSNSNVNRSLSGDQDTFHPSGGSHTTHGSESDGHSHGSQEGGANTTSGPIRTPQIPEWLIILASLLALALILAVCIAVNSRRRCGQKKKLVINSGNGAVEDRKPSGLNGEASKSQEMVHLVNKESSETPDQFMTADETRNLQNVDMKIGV
T1 sequence (Q13797 30-977, chain 1 of 2): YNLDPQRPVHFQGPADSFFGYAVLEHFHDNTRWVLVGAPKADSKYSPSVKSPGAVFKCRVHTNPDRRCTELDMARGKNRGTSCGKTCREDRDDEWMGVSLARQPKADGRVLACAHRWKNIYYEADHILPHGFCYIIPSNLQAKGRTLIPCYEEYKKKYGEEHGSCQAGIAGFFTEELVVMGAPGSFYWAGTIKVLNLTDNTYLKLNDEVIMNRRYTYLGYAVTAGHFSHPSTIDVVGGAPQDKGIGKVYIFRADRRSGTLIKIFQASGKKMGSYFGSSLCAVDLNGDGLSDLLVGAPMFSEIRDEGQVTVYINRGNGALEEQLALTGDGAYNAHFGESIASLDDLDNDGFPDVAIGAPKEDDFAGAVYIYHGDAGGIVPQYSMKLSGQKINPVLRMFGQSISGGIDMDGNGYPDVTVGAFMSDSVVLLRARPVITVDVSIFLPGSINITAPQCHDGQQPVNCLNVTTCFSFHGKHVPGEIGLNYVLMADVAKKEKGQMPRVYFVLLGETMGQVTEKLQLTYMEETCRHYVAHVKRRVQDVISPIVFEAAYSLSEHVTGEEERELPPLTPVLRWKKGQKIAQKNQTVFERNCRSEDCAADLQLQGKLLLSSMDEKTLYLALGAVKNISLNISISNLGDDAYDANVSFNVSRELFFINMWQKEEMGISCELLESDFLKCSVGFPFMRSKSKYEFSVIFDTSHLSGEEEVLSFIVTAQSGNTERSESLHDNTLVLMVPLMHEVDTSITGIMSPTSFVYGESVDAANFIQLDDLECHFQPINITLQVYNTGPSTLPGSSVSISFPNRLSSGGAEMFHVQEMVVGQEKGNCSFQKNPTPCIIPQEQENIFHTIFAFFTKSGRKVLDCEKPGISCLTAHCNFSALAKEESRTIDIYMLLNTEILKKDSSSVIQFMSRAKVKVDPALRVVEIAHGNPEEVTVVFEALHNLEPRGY
T1 sequence (P05556 21-728, chain 2 of 2): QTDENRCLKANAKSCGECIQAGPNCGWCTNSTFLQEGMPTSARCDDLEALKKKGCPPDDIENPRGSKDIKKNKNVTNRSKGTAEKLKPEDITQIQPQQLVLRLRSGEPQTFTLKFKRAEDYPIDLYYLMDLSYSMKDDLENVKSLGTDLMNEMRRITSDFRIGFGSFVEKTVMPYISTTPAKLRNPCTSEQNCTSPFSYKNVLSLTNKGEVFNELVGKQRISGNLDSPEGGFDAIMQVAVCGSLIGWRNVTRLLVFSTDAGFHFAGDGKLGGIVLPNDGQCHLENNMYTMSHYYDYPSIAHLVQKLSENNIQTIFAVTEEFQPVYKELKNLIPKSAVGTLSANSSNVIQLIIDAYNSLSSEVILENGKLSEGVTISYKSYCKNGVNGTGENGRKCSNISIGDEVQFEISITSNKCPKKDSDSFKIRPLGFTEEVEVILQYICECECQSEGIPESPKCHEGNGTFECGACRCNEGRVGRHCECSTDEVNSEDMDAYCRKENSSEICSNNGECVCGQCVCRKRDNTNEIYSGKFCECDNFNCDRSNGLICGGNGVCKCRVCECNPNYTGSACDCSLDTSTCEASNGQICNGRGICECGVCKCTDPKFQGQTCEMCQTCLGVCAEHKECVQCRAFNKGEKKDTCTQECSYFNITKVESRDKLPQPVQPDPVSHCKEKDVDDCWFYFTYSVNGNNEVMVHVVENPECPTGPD

For the molecule “Bacterial recombinant GST-OPNa (after deletion of the signal sequence) (from UniProt P10451-1 17-314) (ligand)”, in test [1], the half-maximal binding concentration (CD44 titrated 0–1000 ng, OPN 125 ng) is 95.5 ng; the half-maximal binding concentration (CD44 titrated 0–1000 ng, OPN 250 ng) was found to be 60.9 ng; the half-maximal binding concentration (CD44 titrated 0–1000 ng, OPN 500 ng) turned out to be 107 ng; the half-maximal binding concentration (CD44 titrated 0–1000 ng, OPN 1000 ng) was 151 ng. In addition, in test [1], the half-maximal binding concentration (CD44 titrated 0–1000 ng, OPN 2000 ng) was determined as 123 ng; the half-maximal binding concentration (CD44 titrated 0–1000 ng, OPN 4000 ng) stood at 138 ng; the half-maximal binding concentration (OPN titrated 125–500 ng, CD44 65 ng) stood at 0.77 ng; the half-maximal binding concentration (OPN titrated 125–500 ng, CD44 125 ng) came out at 8.09 ng. In test [1], the half-maximal binding concentration (OPN titrated 125–500 ng, CD44 250 ng) came out at 40.5 ng; the half-maximal binding concentration (OPN titrated 125–500 ng, CD44 500 ng) came to 50.8 ng; the half-maximal binding concentration (OPN titrated 125–500 ng, CD44 1000 ng) was determined as 60.3 ng. Further, the fold lower affinity than for LSBio CD44v in test [2] stood at 8 fold.

The molecule GST-OPNb (ligand) returned a half-maximal binding concentration (OPN titrated 7.8–500 ng, aVb3 200 ng, taken from the row above) in test [3] of 502 ng.

The molecule “GST-OPNc (from UniProt P10451-3 17-287) (ligand)” returned a half-maximal binding concentration (OPN titrated 7.8–500 ng, aVb3 200 ng, taken from the rows above) in test [3] of 314 ng.

B1: extracellular portion of integrin αVβ3 (R&D Systems) (receptor)
chain 1: FNLDVDSPAEYSGPEGSYFGFAVDFFVPSASSRMFLLVGAPKANTTQPGIVEGGQVLKCDWSSTRRCQPIEFDATGNRDYAKDDPLEFKSHQWFGASVRSKQDKILACAPLYHWRTEMKQEREPVGTCFLQDGTKTVEYAPCRSQDIDADGQGFCQGGFSIDFTKADRVLLGGPGSFYWQGQLISDQVAEIVSKYDPNVYSIKYNNQLATRTAQAIFDDSYLGYSVAVGDFNGDGIDDFVSGVPRAARTLGMVYIYDGKNMSSLYNFTGEQMAAYFGFSVAATDINGDDYADVFIGAPLFMDRGSDGKLQEVGQVSVSLQRASGDFQTTKLNGFEVFARFGSAIAPLGDLDQDGFNDIAIAAPYGGEDKKGIVYIFNGRSTGLNAVPSQILEGQWAARSMPPSFGYSMKGATDIDKNGYPDLIVGAFGVDRAILYRARPVITVNAGLEVYPSILNQDNKTCSLPGTALKVSCFNVRFCLKADGKGVLPRKLNFQVELLLDKLKQKGAIRRALFLYSRSPSHSKNMTISRGGLMQCEELIAYLRDESEFRDKLTPITIFMEYRLDYRTAADTTGLQPILNQFTPANISRQAHILLDCGEDNVCKPKLEVSVDSDQKKIYIGDDNPLTLIVKAQNQGEGAYEAELIVSIPLQADFIGVVRNNEALARLSCAFKTENQTRQVVCDLGNPMKAGTQLLAGLRFSVHQQSEMDTSVKFDLQIQSSNLFDKVSPVVSHKVDLAVLAAVEIRGVSSPDHVFLPIPNWEHKENPETEEDVGPVVQHIYELRNNGPSSFSKAMLHLQWPYKYNNNTLLYILHYDIDGPMNCTSDMEINPLRIKISSLQTTEKNDTVAGQGERDHLITKRDLALSEGDIHTLGCGVAQCLKIVCQVGRLDRGKSAILYVKSLLWTETFMNKENQNHSYSLKSSASFNVIEFPYKNLPIEDITNSTLVTTNVTWGIQPAPMPV
chain 2: GPNICTTRGVSSCQQCLAVSPMCAWCSDEALPLGSPRCDLKENLLKDNCAPESIEFPVSEARVLEDRPLSDKGSGDSSQVTQVSPQRIALRLRPDDSKNFSIQVRQVEDYPVDIYYLMDLSYSMKDDLWSIQNLGTKLATQMRKLTSNLRIGFGAFVDKPVSPYMYISPPEALENPCYDMKTTCLPMFGYKHVLTLTDQVTRFNEEVKKQSVSRNRDAPEGGFDAIMQATVCDEKIGWRNDASHLLVFTTDAKTHIALDGRLAGIVQPNDGQCHVGSDNHYSASTTMDYPSLGLMTEKLSQKNINLIFAVTENVVNLYQNYSELIPGTTVGVLSMDSSNVLQLIVDAYGKIRSKVELEVRDLPEELSLSFNATCLNNEVIPGLKSCMGLKIGDTVSFSIEAKVRGCPQEKEKSFTIKPVGFKDSLIVQVTFDCDCACQAQAEPNSHRCNNGNGTFECGVCRCGPGWLGSQCECSEEDYRPSQQDECSPREGQPVCSQRGECLCGQCVCHSSDFGKITGKYCECDDFSCVRYKGEMCSGHGQCSCGDCLCDSDWTGYYCNCTTRTDTCMSSNGLLCSGRGKCECGSCVCIQPGSYGDTCEKCPTCPDACTFKKECVECKKFDRGALHDENTCNRYCRDEIESVKELKDTGKDAVNCTYKNEDDCVVRFQYYEDSSGKSILYVVEEPECPKGPD
notes: also called aVb3; source: bought: R&D Systems
In the case of B1, the binding result in test [4] is “binds”.

The record behind these values is article PMC8228714, “Structural Constraint of Osteopontin Facilitates Efficient Binding to CD44” (Biomolecules, 2021).
